Target: T1, FcγRIIIa (human, UniProt P08637 17-208)
T1 construct: extracellular domain; also called 3a; FcγRIIIa extracellular domain
Assay: SPR (Biacore);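 also: antibody variants captured on an SPR sensor chip, with FcγRIIIa passed over as analyte in HBS-EP+ buffer at 25 °C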
Procedure: The antibody of interest was analyzed for its interaction with FcγR using a BiaCore™ T100, BiaCore™ A100, or BiaCore™ 4000 surface plasmon resonance system (GE Healthcare Japan Corp.). The running buffer used was HBS-EP+ (GE Healthcare Japan Corp.). The assay temperature was set to 25° C. The sensor chips used were: a chip prepared by immobilizing antigenic peptides onto Series S Sensor Chip CM5 (GE Healthcare Japan Corp.) by the amine coupling method; a chip prepared by immobilizing antigenic peptides biotinylated in advance onto Series S Sensor Chip SA (certified) (GE Healthcare Japan Corp.) through their interaction; a chip prepared by immobilizing protein L (ACTIGEN, BioVision, Inc.) onto Series S Sensor Chip CM5 (GE Healthcare Japan Corp.); and a chip prepared by immobilizing protein A/G (Thermo Fisher Scientific K.K.) onto Series S Sensor Chip CM5 (GE Healthcare Japan Corp.). The antibody of interest was captured onto any of these chips and allowed to interact with FcγR diluted with a running buffer. The antibody captured on the chip was washed off through the reaction of 10 mM glycine-HCl (pH 1.5) to regenerate the chip, which was repetitively used.

T1 sequence (P08637 other isoform, or with tags, fused parts or gaps): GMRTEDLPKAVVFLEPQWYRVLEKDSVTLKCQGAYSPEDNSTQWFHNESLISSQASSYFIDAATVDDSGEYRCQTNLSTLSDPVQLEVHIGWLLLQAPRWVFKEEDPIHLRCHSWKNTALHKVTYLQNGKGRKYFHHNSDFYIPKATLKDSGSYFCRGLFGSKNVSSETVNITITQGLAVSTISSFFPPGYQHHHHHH

Binder | He/Con 3a
GpH7-A5/GpH7-B3 variant L235_02A/GpL16-k0 (antibody, human IgG1, kappa, copies: 1 + 1 + 2) heavy 1: not shown heavy 2: not shown light: DIVMTQSPLSLPVTPGEPASISCQASESLVHSNRNTYLHWYLQKPGQSPQLLIYKVSNRFSGVPDRFSGSGSGTDFTLKISRVEAEDVGVYYCSQNTHVPPTFGQGTKVEIERTVAAPSVFIFPPSDEQLKSGTASVVCLLNNFYPREAKVQWKVDNALQSGNSQESVTEQDSKDSTYSLSSTLTLSKADYEKHKVYACEVTHQGLSSPVTKSFNRGEC | 72 % of GpH7-A5/GpH7-B3/GpL16-k0
GpH7-A5/GpH7-B3 variant L328_13S/GpL16-k0 (antibody, human IgG1, kappa, copies: 1 + 1 + 2) heavy 1: not shown heavy 2: not shown light: DIVMTQSPLSLPVTPGEPASISCQASESLVHSNRNTYLHWYLQKPGQSPQLLIYKVSNRFSGVPDRFSGSGSGTDFTLKISRVEAEDVGVYYCSQNTHVPPTFGQGTKVEIERTVAAPSVFIFPPSDEQLKSGTASVVCLLNNFYPREAKVQWKVDNALQSGNSQESVTEQDSKDSTYSLSSTLTLSKADYEKHKVYACEVTHQGLSSPVTKSFNRGEC | 73.7 % of GpH7-A5/GpH7-B3/GpL16-k0
GpH7-A5/GpH7-B3 variant L235_04F/GpL16-k0 (antibody, human IgG1, kappa, copies: 1 + 1 + 2) heavy 1: not shown heavy 2: not shown light: DIVMTQSPLSLPVTPGEPASISCQASESLVHSNRNTYLHWYLQKPGQSPQLLIYKVSNRFSGVPDRFSGSGSGTDFTLKISRVEAEDVGVYYCSQNTHVPPTFGQGTKVEIERTVAAPSVFIFPPSDEQLKSGTASVVCLLNNFYPREAKVQWKVDNALQSGNSQESVTEQDSKDSTYSLSSTLTLSKADYEKHKVYACEVTHQGLSSPVTKSFNRGEC | 76.4 % of GpH7-A5/GpH7-B3/GpL16-k0
GpH7-A5/GpH7-B3 variant L328_10E/GpL16-k0 (antibody, human IgG1, kappa, copies: 1 + 1 + 2) heavy 1: not shown heavy 2: not shown light: DIVMTQSPLSLPVTPGEPASISCQASESLVHSNRNTYLHWYLQKPGQSPQLLIYKVSNRFSGVPDRFSGSGSGTDFTLKISRVEAEDVGVYYCSQNTHVPPTFGQGTKVEIERTVAAPSVFIFPPSDEQLKSGTASVVCLLNNFYPREAKVQWKVDNALQSGNSQESVTEQDSKDSTYSLSSTLTLSKADYEKHKVYACEVTHQGLSSPVTKSFNRGEC | 54.9 % of GpH7-A5/GpH7-B3/GpL16-k0
GpH7-A5/GpH7-B3 variant L235_19Q/GpL16-k0 (antibody, human IgG1, kappa, copies: 1 + 1 + 2) heavy 1: not shown heavy 2: not shown light: DIVMTQSPLSLPVTPGEPASISCQASESLVHSNRNTYLHWYLQKPGQSPQLLIYKVSNRFSGVPDRFSGSGSGTDFTLKISRVEAEDVGVYYCSQNTHVPPTFGQGTKVEIERTVAAPSVFIFPPSDEQLKSGTASVVCLLNNFYPREAKVQWKVDNALQSGNSQESVTEQDSKDSTYSLSSTLTLSKADYEKHKVYACEVTHQGLSSPVTKSFNRGEC | 68.1 % of GpH7-A5/GpH7-B3/GpL16-k0

Second part, the binder after the results:

He/Con 3a | Binder
81.5 % of GpH7-A5/GpH7-B3/GpL16-k0 | GpH7-A5/GpH7-B3 variant L328_04F/GpL16-k0 (antibody, human IgG1, kappa, copies: 1 + 1 + 2) heavy 1: not shown heavy 2: not shown light: DIVMTQSPLSLPVTPGEPASISCQASESLVHSNRNTYLHWYLQKPGQSPQLLIYKVSNRFSGVPDRFSGSGSGTDFTLKISRVEAEDVGVYYCSQNTHVPPTFGQGTKVEIERTVAAPSVFIFPPSDEQLKSGTASVVCLLNNFYPREAKVQWKVDNALQSGNSQESVTEQDSKDSTYSLSSTLTLSKADYEKHKVYACEVTHQGLSSPVTKSFNRGEC
86.4 % of GpH7-A5/GpH7-B3/GpL16-k0 | GpH7-A5/GpH7-B3 variant L328_07I/GpL16-k0 (antibody, human IgG1, kappa, copies: 1 + 1 + 2) heavy 1: not shown heavy 2: not shown light: DIVMTQSPLSLPVTPGEPASISCQASESLVHSNRNTYLHWYLQKPGQSPQLLIYKVSNRFSGVPDRFSGSGSGTDFTLKISRVEAEDVGVYYCSQNTHVPPTFGQGTKVEIERTVAAPSVFIFPPSDEQLKSGTASVVCLLNNFYPREAKVQWKVDNALQSGNSQESVTEQDSKDSTYSLSSTLTLSKADYEKHKVYACEVTHQGLSSPVTKSFNRGEC
94.6 % of GpH7-A5/GpH7-B3/GpL16-k0 | GpH7-A5/GpH7-B3 variant L235_03V/GpL16-k0 (antibody, human IgG1, kappa, copies: 1 + 1 + 2) heavy 1: not shown heavy 2: not shown light: DIVMTQSPLSLPVTPGEPASISCQASESLVHSNRNTYLHWYLQKPGQSPQLLIYKVSNRFSGVPDRFSGSGSGTDFTLKISRVEAEDVGVYYCSQNTHVPPTFGQGTKVEIERTVAAPSVFIFPPSDEQLKSGTASVVCLLNNFYPREAKVQWKVDNALQSGNSQESVTEQDSKDSTYSLSSTLTLSKADYEKHKVYACEVTHQGLSSPVTKSFNRGEC
67.2 % of GpH7-A5/GpH7-B3/GpL16-k0 | GpH7-A5/GpH7-B3 variant L235_13S/GpL16-k0 (antibody, human IgG1, kappa, copies: 1 + 1 + 2) heavy 1: not shown heavy 2: not shown light: DIVMTQSPLSLPVTPGEPASISCQASESLVHSNRNTYLHWYLQKPGQSPQLLIYKVSNRFSGVPDRFSGSGSGTDFTLKISRVEAEDVGVYYCSQNTHVPPTFGQGTKVEIERTVAAPSVFIFPPSDEQLKSGTASVVCLLNNFYPREAKVQWKVDNALQSGNSQESVTEQDSKDSTYSLSSTLTLSKADYEKHKVYACEVTHQGLSSPVTKSFNRGEC
75.6 % of GpH7-A5/GpH7-B3/GpL16-k0 | GpH7-A5/GpH7-B3 variant L235_06M/GpL16-k0 (antibody, human IgG1, kappa, copies: 1 + 1 + 2) heavy 1: not shown heavy 2: not shown light: DIVMTQSPLSLPVTPGEPASISCQASESLVHSNRNTYLHWYLQKPGQSPQLLIYKVSNRFSGVPDRFSGSGSGTDFTLKISRVEAEDVGVYYCSQNTHVPPTFGQGTKVEIERTVAAPSVFIFPPSDEQLKSGTASVVCLLNNFYPREAKVQWKVDNALQSGNSQESVTEQDSKDSTYSLSSTLTLSKADYEKHKVYACEVTHQGLSSPVTKSFNRGEC
81.3 % of GpH7-A5/GpH7-B3/GpL16-k0 | GpH7-A5/GpH7-B3 variant L328_02A/GpL16-k0 (antibody, human IgG1, kappa, copies: 1 + 1 + 2) heavy 1: not shown heavy 2: not shown light: DIVMTQSPLSLPVTPGEPASISCQASESLVHSNRNTYLHWYLQKPGQSPQLLIYKVSNRFSGVPDRFSGSGSGTDFTLKISRVEAEDVGVYYCSQNTHVPPTFGQGTKVEIERTVAAPSVFIFPPSDEQLKSGTASVVCLLNNFYPREAKVQWKVDNALQSGNSQESVTEQDSKDSTYSLSSTLTLSKADYEKHKVYACEVTHQGLSSPVTKSFNRGEC

Reference: US20260167699A1 (Chugai, published 2026)
